From patent publication US6448059

Experiments:
[1] = target: T1, cysteine-tRNA synthetase (CysRS) (Haemophilus influenzae) (UniProt P43816); conditions: kcat/Km of aminoacylation, 37 C; relative 1.4
T1 sequence: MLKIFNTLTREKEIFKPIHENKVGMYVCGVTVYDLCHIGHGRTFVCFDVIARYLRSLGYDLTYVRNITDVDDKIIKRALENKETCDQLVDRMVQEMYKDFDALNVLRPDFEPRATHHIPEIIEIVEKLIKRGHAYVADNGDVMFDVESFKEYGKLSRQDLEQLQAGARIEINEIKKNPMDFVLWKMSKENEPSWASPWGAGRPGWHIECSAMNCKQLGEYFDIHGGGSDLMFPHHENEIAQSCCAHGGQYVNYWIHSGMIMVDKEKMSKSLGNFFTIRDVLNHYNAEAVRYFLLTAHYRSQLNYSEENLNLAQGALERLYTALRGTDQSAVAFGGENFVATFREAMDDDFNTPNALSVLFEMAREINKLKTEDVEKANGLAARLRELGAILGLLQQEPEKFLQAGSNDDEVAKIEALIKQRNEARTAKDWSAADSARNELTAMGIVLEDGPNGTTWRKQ

[2] = target: T2, cysteine-tRNA synthetase (CysRS) (Escherichia coli) (UniProt P21888); conditions: kcat/Km of aminoacylation, 37 C; relative 1.6
T2 sequence: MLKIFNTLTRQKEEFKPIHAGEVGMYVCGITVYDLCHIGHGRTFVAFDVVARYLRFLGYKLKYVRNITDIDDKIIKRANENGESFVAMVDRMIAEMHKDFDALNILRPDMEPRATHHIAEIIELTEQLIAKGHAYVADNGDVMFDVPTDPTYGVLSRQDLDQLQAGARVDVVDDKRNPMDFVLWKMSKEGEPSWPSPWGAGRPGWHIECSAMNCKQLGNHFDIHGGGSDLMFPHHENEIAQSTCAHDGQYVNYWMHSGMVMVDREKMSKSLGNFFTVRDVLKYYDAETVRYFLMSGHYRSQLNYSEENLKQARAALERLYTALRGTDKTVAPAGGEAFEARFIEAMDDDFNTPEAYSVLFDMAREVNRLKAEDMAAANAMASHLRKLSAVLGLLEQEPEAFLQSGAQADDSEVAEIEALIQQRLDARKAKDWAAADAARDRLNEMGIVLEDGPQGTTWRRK

**Q.** For B. subtilis tRNACys, which activity [1] is on record?
**A.** Its activity is 250000 M⁻¹ s⁻¹.

**Q.** And the activity [2]?
**A.** The activity was 340000 M⁻¹ s⁻¹.
